Assay: yeast display, Sf9 membrane polyspecificity reagent, FACS + sequencing; frameworks hold sequencing errors
Outline: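 Galactose induction of a Saccharomyces cerevisiae BJ5465 synthetic nanobody display library ran 36–48 hours. The cells were then stained for 1 hour at 4 °C with 10% biotinylated, detergent-solubilized Sf9 membrane reagent, pulled down on streptavidin microbeads and FACS-sorted into low and high (top ~1%) gates on expression and reagent-binding fluorescence. Labels for polyreactivity follow the gate of origin.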

Sequence | polyreactivity (PSR sort gate)
QIQLVESGGGLVQAGGSLRLSCAASGFTFYANAMGWYRQAPGKERELVAAISSSGGSTYYADSVKGRFTISRDNAKNTVYLQMNSLKPEDTAVYYCNVYSRHWYRYEFDYWGQGTQVTVSS | high polyreactivity
QIQLVESGGGLVQAGGSLRLSCSASGSISGYYSRRWYRQAPGKQSEFVASIRYTGARTYYADSVKGRFTISLDNAKNTVYLQMNSLIAEDTAVYFWAADVKRDSVWGGDYWGQGNQVTVSS | low polyreactivity
QIQLVESGGGLVQAGSSLRLSCAASGRTFNTYAMGGYRPAPGNERELVAAITYNGGSTYYADSVKGRFTISRDNAKTTVYLQMNSLKPEYTAVYDCNVRLRTRYRKYDYWGQGTQVTVSS | high polyreactivity
QLHLVESGGGLVQAGGSLRLSCAASGRIFGVYAMGWYRQAPGKERELVASITWRGGSTYYADSVKGRFTISRDNAKNTVYLQMNSLKPEDTAVYYCAAAYWYAYEYWGQGTQVTVSS | high polyreactivity
QLKLEESGGGLVQAGGSLRLSCAASGFIFSYNAMGWYRQAPGKERELDAAISSIGSGTYYADSVKGRFTISRDNAKYTVYLQMNSLKPEDTAVYYCAKYLRPRIGSRYYYWGQGTQVTVSS | high polyreactivity
QLQHVESGGGLVQAGGSLRLSCAASGSTFYRNAKGWSRQAPGKEREFVADITLGGGSTYYADSVKGRFTISRDHAKNTVYLQMKSLKPEDTAVYFCAVDYWQLNYDYWGQGTQVTVSS | low polyreactivity
QLQHVESGVGIVQAGRSLRLSCAASGRTFSHYAMGWYRQAPGKERELVAAIRWRGGSTYYADSVKGRFTISRDNAKNTVYLQMNSRKPEDTAVSYCAAVALYIWTHPSDYWGLGTQVTVSS | high polyreactivity
QLQLEDSAGGLVQAGGSLRLSFAASGFIFDPNAIGWYRQAPAKEREFVAAIRTSGGSTYYADSVKGRFTISRDNAKNTVYLQMNSLKPEDPAVYYCAAKGRYADWSGYGYWGQGTQVTVSS | high polyreactivity
QLQLEESVGGLVQAGVSLRLSCAASGRTFRRYAMGSDRPAPAKERELVATIRSGDNTNYADSVKGRFTISRDNAKNTFYLQMKSLKPEDTAVYYCNRSPKSGQVTYLYSVNAHYDYWGQGTQVTVSS | low polyreactivity
QLQLGESAGGLVQAGGSLRLSCAASGSIFGLNAIGWYIQAPGKERELVAAISSGGSTYYADSVKGRFTISRDNAKNTVYLQMNSLKPEDTAVYYCNAYFQYYDYWGLGTQVTVSS | low polyreactivity
QLQLGESGGGLVQAAGSRRLSCAASGRTLCYYAMGWYSQAPGQDRELVAAITWTGGRTYYADSVKGRFTISRDNPKNSVYLQMNTLKPDDTAVDYCNAVYSPRYYVGGYDYWGQGTQVTVSS | high polyreactivity
QLQLQESGGGLVQAGVCLSCTASGTIFGQGDMGWYRQAPGKERELVATINDGASTYYADSVKGRFTISRDKAKNTVYLQKNSLKPDDNAVYYCAVFTDITTYFGYWGQGTQVTVSS | low polyreactivity
QLQLQESGGGLVQGGGSLRLSCAASGSIYRSWYMGWYRQAPGKERELVASMTEGATTNYAYSVKAALPLAAITRNPVYLQMDSMKPEDTAVYYRAASFGSTYDLVYWGKGTQVTVSS | high polyreactivity
QLQLVDSGGGLVKAGGSLRLSCAASGRTFYRYAMGWYRKAPGKERELVAAINFSTGSTYYADSVKGRFTISRDNAKNTVYLQMNSLKPEDTAVYYCAVPYGSYVGYDYWGQGTQVTVSS | low polyreactivity
QLQLVDSGGGLVQAGGSLRLSCADSGRTYGAYTMGWYRKAPGKERELVAAINWSGGDTYYADSVKVRFTISRDNAKNTVYLQMNRLKPEDTAVYYCNAEPRYGTYDYWGQGTQVTVSS | low polyreactivity
QLQLVDSGGGVVQAGGSLRLSCAASGSTFSRYAMGWYRQAPGKEMELVAAISTRGGSTRYADSVKGRFTISRDNAKNTVYLQMYCRKPEDTAVYYGAALGQGRTSATSFVDYEYWGQGTQVTVSS | high polyreactivity

From the nanobody polyreactivity screen of Harvey et al. (2022)
